Here are results for two molecules from PMC8592984 (2021).

Among the targets are Tau 441 P301S (human, UniProt P10636-8 1-441, P301S); Tau 410 P179A (human, UniProt P10636-5 1-410, P179A); Tau 410 P179A/P216A (human, UniProt P10636-5 1-410, P179A | P216A); Tau 410 P216A (human, UniProt P10636-5 1-410, P216A).
Assay in all cases: SPR
On the technique in general: SPR reads the build-up and loss of mass on a sensor chip optically.

Assay [1] concerns the target T1, human Tau 441 full-length protein (4R tau), SPR construct (human, UniProt P10636-8 1-441).
The target of assay [2] is T1, human Tau 441 full-length protein (4R …). The source holds these as a separate data set.
Assay [3] has as its target human Tau 410 full-length protein (3R tau), SPR construct (human, UniProt P10636-5 1-410).

Where two headings read alike, the source gives them in different places.

T1 sequence (P10636 other isoform, or with tags, fused parts or gaps): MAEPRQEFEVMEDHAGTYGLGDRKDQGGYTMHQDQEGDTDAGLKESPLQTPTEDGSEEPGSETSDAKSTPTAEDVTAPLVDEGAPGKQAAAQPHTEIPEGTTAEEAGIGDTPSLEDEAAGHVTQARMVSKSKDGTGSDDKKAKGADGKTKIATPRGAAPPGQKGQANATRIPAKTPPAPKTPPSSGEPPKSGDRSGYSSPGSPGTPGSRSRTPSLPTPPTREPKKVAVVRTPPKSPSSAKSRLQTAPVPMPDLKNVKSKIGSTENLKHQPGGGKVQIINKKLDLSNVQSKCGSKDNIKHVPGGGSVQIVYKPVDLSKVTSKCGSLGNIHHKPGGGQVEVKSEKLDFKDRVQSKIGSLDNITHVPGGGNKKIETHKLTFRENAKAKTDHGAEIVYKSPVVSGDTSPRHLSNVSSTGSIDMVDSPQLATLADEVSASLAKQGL
Sequence of Tau 410 P179A/P216A (P10636 other isoform, or with tags, fused parts or gaps P179A | P216A | P179A P216A): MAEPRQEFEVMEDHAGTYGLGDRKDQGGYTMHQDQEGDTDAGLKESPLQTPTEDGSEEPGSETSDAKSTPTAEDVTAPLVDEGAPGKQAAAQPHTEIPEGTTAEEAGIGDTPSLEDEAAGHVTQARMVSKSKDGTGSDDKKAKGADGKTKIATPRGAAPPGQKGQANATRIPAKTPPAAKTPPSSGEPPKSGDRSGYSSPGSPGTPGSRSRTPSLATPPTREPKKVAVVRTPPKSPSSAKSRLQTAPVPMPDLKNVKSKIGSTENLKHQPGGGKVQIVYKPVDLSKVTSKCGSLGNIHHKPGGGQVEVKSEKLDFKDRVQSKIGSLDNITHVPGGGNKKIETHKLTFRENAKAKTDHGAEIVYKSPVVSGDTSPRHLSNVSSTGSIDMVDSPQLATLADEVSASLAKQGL
Sequence of Tau 410 P216A (P10636 other isoform, or with tags, fused parts or gaps P216A | P216A): as the sequence (P10636 other isoform, or with tags, fused parts or gaps P179A | P216A | P179A P216A) above, with A179P counted along it
Sequence of Tau 441 P301S (P10636 other isoform, or with tags, fused parts or gaps P301S | P301S): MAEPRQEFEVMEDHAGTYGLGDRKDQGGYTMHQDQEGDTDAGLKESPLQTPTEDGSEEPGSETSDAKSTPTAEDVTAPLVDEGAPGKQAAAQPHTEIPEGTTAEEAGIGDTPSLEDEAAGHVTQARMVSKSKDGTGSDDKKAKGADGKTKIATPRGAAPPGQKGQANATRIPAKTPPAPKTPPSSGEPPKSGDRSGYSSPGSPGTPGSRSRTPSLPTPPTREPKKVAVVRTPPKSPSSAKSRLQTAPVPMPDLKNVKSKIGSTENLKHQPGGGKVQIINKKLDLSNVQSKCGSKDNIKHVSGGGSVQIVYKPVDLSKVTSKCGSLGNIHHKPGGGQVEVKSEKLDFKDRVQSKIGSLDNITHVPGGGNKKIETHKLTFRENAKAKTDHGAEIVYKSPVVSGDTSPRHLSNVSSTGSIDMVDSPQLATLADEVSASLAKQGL
Sequence of human Tau 410 full-length protein (3R tau), SPR construct (P10636 other isoform, or with tags, fused parts or gaps): as the sequence (P10636 other isoform, or with tags, fused parts or gaps P179A | P216A | P179A P216A) above, with A179P, A216P counted along it
Sequence of Tau 410 P179A (P10636 other isoform, or with tags, fused parts or gaps P179A | P179A): as the sequence (P10636 other isoform, or with tags, fused parts or gaps P179A | P216A | P179A P216A) above, with A216P counted along it

B1: human PQBP1 full-length form (PQBP1-FL) (natural protein)
chain: MPLPVALQTRLAKRGILKHLEPEPEEEIIAEDYDDDPVDYEATRLEGLPPSWYKVFDPSCGLPYYWNADTDLVSWLSPHDPNSVVTKSAKKLRSSNADAEEKLDRSHDKSDRGHDKSDRSHEKLDRGHDKSDRGHDKSDRDRERGYDKVDRERERDRERDRDRGYDKADREEGKERRHHRREELAPYPKSKKAVSRKDEELDPMDPSSYSDAPRGTWSTGLPKRNEAKTGADTTAAGPLFQQRPYPSPGAVLRANAEASRTKQQD
A word on the Kd: it is the free concentration of one partner at which half of the binding sites on the other are occupied at equilibrium, for simple one-to-one binding. A high value points to lower affinity. B1: the Kd in the assay with Tau 441 P301S is 51.5 nM; in assay [1] it was 42.1 nM; in the assay with Tau 410 P179A, 4820 nM; in the assay with Tau 410 P179A/P216A it was 26000 nM; in assay [2], 12.2 nM; in assay [3], 43.3 nM. In the assay with Tau 410 P216A, this molecule came in with a Kd of 314 nM.

B2: human PQBP1(1–94) including WWD (domain or fragment)
chain: MPLPVALQTRLAKRGILKHLEPEPEEEIIAEDYDDDPVDYEATRLEGLPPSWYKVFDPSCGLPYYWNADTDLVSWLSPHDPNSVVTKSAKKLRS
In the case of B2, the Kd amounted to 46.2 nM with Tau 441 P301S; 54.7 nM in assay [1]; 6340 nM in the assay with Tau 410 P179A; 73300 nM in the assay with Tau 410 P179A/P216A; 11 nM in assay [2]; 76.9 nM in assay [3]. In the assay with Tau 410 P216A, this molecule registered a Kd of 445 nM.
